Measurements taken from patent US20250333467A1 (TECTONIC OPERATING, published 2025).

T1: human RXFP1 (human, UniProt Q9HBX9 1-757)
T1 sequence (looked up): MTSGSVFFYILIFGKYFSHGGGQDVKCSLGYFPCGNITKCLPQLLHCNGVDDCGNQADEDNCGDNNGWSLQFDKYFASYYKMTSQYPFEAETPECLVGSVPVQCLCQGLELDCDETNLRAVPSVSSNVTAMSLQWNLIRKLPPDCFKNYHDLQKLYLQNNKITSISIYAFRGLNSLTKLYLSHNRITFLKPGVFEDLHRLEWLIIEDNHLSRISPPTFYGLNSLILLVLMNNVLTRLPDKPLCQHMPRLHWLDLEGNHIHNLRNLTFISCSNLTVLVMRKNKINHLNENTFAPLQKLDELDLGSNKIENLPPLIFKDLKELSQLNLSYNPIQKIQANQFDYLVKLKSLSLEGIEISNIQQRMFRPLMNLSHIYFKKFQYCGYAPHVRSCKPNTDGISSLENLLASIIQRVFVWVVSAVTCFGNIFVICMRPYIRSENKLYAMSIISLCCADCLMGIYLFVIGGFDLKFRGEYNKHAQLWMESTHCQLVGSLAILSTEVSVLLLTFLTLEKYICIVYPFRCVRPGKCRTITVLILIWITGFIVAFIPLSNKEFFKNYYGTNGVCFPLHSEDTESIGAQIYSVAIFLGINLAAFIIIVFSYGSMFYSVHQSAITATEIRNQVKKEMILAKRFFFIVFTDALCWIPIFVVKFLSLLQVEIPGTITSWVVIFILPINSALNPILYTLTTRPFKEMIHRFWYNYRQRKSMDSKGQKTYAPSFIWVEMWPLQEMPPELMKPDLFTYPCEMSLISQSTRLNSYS


Biological target: T1, human RXFP1
Assay: cell-based or functional assay

| Binder | Potency (cAMP, transient hRXFP1 in HEK293) [nM] |
| --- | --- |
| SEQ ID NO: 368 (Fc fusion) DKTHTCPPCPAPEAAGGPSVFLFPPKPKDTLMISRTPEVTCVVVDVSHEDPEVKFNWYVDGVEVHNAKTKPREEQYNSTYRVVSVLTVLHQDWLNGKEYKCKVSNKALAAPIEKTISKAKGQPREPQVYTLPPSRDELTKNQVSLTCLVKGFYPSDIAVEWESNGQPENNYKTTPPVLDSDGSFFLYSKLTVDKSRWQQGNVFSCSVLHEALHSHYTQKSLSLSPGGGSDSWQEEVIKLCGRELVRAQIAICGKSTGGEGGGEEGGGEGGQLYSALANKCCHVGCTKRSLARFC | 101 |
| SEQ ID NO: 315 (Fc fusion) DKTHTCPPCPAPEAAGGPSVFLFPPKPKDTLMISRTPEVTCVVVDVSHEDPEVKFNWYVDGVEVHNAKTKPREEQYNSTYRVVSVLTVLHQDWLNGKEYKCKVSNKALAAPIEKTISKAKGQPREPQVYTLPPSRDELTKNQVSLTCLVKGFYPSDIAVEWESNGQPENNYKTTPPVLDSDGSFFLYSKLTVDKSRWQQGNVFSCSVLHEALHSHYTQKSLSLSPGGGSDSWQEEVIKLCGRELVRAQIAICGKSTGGGEGGGEGGGEGRQLYSALANKCCHVGCTKRSLARFC | 3.3 |
| SEQ ID NO: 361 (Fc fusion) DKTHTCPPCPAPEAAGGPSVFLFPPKPKDTLMISRTPEVTCVVVDVSHEDPEVKFNWYVDGVEVHNAKTKPREEQYNSTYRVVSVLTVLHQDWLNGKEYKCKVSNKALAAPIEKTISKAKGQPREPQVYTLPPSRDELTKNQVSLTCLVKGFYPSDIAVEWESNGQPENNYKTTPPVLDSDGSFFLYSKLTVDKSRWQQGNVFSCSVLHEALHSHYTQKSLSLSPGKGGSDSWKEEVIKLCGRELVRAQIAICGKSTGGGEGGGEGGGEGRQLYSALANKCCHVGCTKRSLARFC | 2.5 |
| SEQ ID NO: 366 (Fc fusion) DKTHTCPPCPAPEAAGGPSVFLFPPKPKDTLMISRTPEVTCVVVDVSHEDPEVKFNWYVDGVEVHNAKTKPREEQYNSTYRVVSVLTVLHQDWLNGKEYKCKVSNKALAAPIEKTISKAKGQPREPQVYTLPPSRDELTKNQVSLTCLVKGFYPSDIAVEWESNGQPENNYKTTPPVLDSDGSFFLYSKLTVDKSRWQQGNVFSCSVLHEALHSHYTQKSLSLSPGKGGSDSWQEEVIKLCGRELVRAQIAICGKSTGGEGGGEEGGGEGGQLYSALANKCCHVGCTKRSLARFC | 62.8 |
| SEQ ID NO: 363 (Fc fusion) DKTHTCPPCPAPEAAGGPSVFLFPPKPKDTLMISRTPEVTCVVVDVSHEDPEVKFNWYVDGVEVHNAKTKPREEQYNSTYRVVSVLTVLHQDWLNGKEYKCKVSNKALAAPIEKTISKAKGQPREPQVYTLPPSRDELTKNQVSLTCLVKGFYPSDIAVEWESNGQPENNYKTTPPVLDSDGSFFLYSKLTVDKSRWQQGNVFSCSVLHEALHSHYTQKSLSLSPGKGGSDSWMEEVIKLCGRELVRAQIAICGKSTGGGEGGGEGGGEGRQLYSALANKCCHVGCTKRSLARFC | 2.9 |
| SEQ ID NO: 304 (Fc fusion) DKTHTCPPCPAPEAAGGPSVFLFPPKPKDTLMISRTPEVTCVVVDVSHEDPEVKFNWYVDGVEVHNAKTKPREEQYNSTYRVVSVLTVLHQDWLNGKEYKCKVSNKALAAPIEKTISKAKGQPREPQVYTLPPSRDELTKNQVSLTCLVKGFYPSDIAVEWESNGQPENNYKTTPPVLDSDGSFFLYSKLTVDKSRWQQGNVFSCSVLHEALHSHYTQKSLSLSPGKGGSDSWQEEVIKLCGRELVRAQIAICGKSTGGGEGGGEGGGEGRQLYSALANKCCHVGCTKRSLARFC | 2.5 |
| SEQ ID NO: 365 (Fc fusion) DKTHTCPPCPAPEAAGGPSVFLFPPKPKDTLMISRTPEVTCVVVDVSHEDPEVKFNWYVDGVEVHNAKTKPREEQYNSTYRVVSVLTVLHQDWLNGKEYKCKVSNKALAAPIEKTISKAKGQPREPQVYTLPPSRDELTKNQVSLTCLVKGFYPSDIAVEWESNGQPENNYKTTPPVLDSDGSFFLYSKLTVDKSRWQQGNVFSCSVLHEALHSHYTQKSLSLSPGKGGSDSWMEEVIKLCGRELVRAQIAICGKSTGGEGGGEEGGGEGGQLYSALANKCCHVGCTKRSLARFC | 60.3 |
| SEQ ID NO: 369 (Fc fusion) DKTHTCPPCPAPEAAGGPSVFLFPPKPKDTLMISRTPEVTCVVVDVSHEDPEVKFNWYVDGVEVHNAKTKPREEQYNSTYRVVSVLTVLHQDWLNGKEYKCKVSNKALAAPIEKTISKAKGQPREPQVYTLPPSRDELTKNQVSLTCLVKGFYPSDIAVEWESNGQPENNYKTTPPVLDSDGSFFLYSKLTVDKSRWQQGNVFSCSVLHEALHSHYTQKSLSLSPGKGGSDSWKEEVIKLCGRELVRAQIAICGKSTASDAAGANANAGARQLYSALANKCCHVGCTKRSLAQFC | 0.5 |
| SEQ ID NO: 370 (Fc fusion) DKTHTCPPCPAPEAAGGPSVFLFPPKPKDTLMISRTPEVTCVVVDVSHEDPEVKFNWYVDGVEVHNAKTKPREEQYNSTYRVVSVLTVLHQDWLNGKEYKCKVSNKALAAPIEKTISKAKGQPREPQVYTLPPSRDELTKNQVSLTCLVKGFYPSDIAVEWESNGQPENNYKTTPPVLDSDGSFFLYSKLTVDKSRWQQGNVFSCSVLHEALHSHYTQKSLSLSPGKGGSDSWKEEVIKLCGRELVRAQIAICGKSTASDAAGANANAGARQLYSALANKCCHVGCTKRSLAEFC | 1.8 |
| SEQ ID NO: 362 (Fc fusion) DKTHTCPPCPAPEAAGGPSVFLFPPKPKDTLMISRTPEVTCVVVDVSHEDPEVKFNWYVDGVEVHNAKTKPREEQYNSTYRVVSVLTVLHQDWLNGKEYKCKVSNKALAAPIEKTISKAKGQPREPQVYTLPPSRDELTKNQVSLTCLVKGFYPSDIAVEWESNGQPENNYKTTPPVLDSDGSFFLYSKLTVDKSRWQQGNVFSCSVLHEALHSHYTQKSLSLSPGKGGSDSWKEEVIKLCGRELVRAQIAICGKSTGGGEGGGEGGGEGGGQLYSALANKCCHVGCTKRSLARFC | 12.3 |
| SEQ ID NO: 364 (Fc fusion) DKTHTCPPCPAPEAAGGPSVFLFPPKPKDTLMISRTPEVTCVVVDVSHEDPEVKFNWYVDGVEVHNAKTKPREEQYNSTYRVVSVLTVLHQDWLNGKEYKCKVSNKALAAPIEKTISKAKGQPREPQVYTLPPSRDELTKNQVSLTCLVKGFYPSDIAVEWESNGQPENNYKTTPPVLDSDGSFFLYSKLTVDKSRWQQGNVFSCSVLHEALHSHYTQKSLSLSPGKGGSDSWMEEVIKLCGRELVRAQIAICGKSTGGGEGGGEGGGEGGGQLYSALANKCCHVGCTKRSLARFC | 16 |
| SEQ ID NO: 307 (Fc fusion) DKTHTCPPCPAPEAAGGPSVFLFPPKPKDTLMISRTPEVTCVVVDVSHEDPEVKFNWYVDGVEVHNAKTKPREEQYNSTYRVVSVLTVLHQDWLNGKEYKCKVSNKALAAPIEKTISKAKGQPREPQVYTLPPSRDELTKNQVSLTCLVKGFYPSDIAVEWESNGQPENNYKTTPPVLDSDGSFFLYSKLTVDKSRWQQGNVFSCSVLHEALHSHYTQKSLSLSPGKGGSDSWQEEVIKLCGRELVRAQIAICGKSTGGGEGGGEGGGEGGGQLYSALANKCCHVGCTKRSLARFC | 15.8 |
